According to article PMC9259494:

Tests used:
Assay in all cases: cryo-EM structure; single-particle cryo-EM of the co-purified R388 T4SS complex (VirB3-VirB10); 50 mM HEPES pH 7.6, 200 mM sodium acetate, 0.1% digitonin, 0.05 mM TDAO; maps of O-layer, I-layer, stalk, IMC protomer near-atomic, arches from the 6.18 Å map
[1] = target: TrwE/VirB10 with Strep tag (R388 T4SS) (plasmid R388)
[2] = target: TrwF/VirB9 (R388 T4SS) (plasmid R388)
[3] = target: TrwG/VirB8 (R388 T4SS) (plasmid R388)
[4] = target: TrwI/VirB6 (R388 T4SS) (plasmid R388)
[5] = target: TrwJ/VirB5 (R388 T4SS) (plasmid R388)
[6] = target: TrwK/VirB4 (R388 T4SS) (plasmid R388)

In the case of “TrwE/VirB10 with Strep tag (R388 T4SS) (natural protein)”, the stoichiometry N [1] is reported as 14.
Work on “TrwF/VirB9 (R388 T4SS) (natural protein)” yielded a stoichiometry N [2] of 16.
“TrwG/VirB8 (R388 T4SS) (natural protein)” gave a stoichiometry N [3] of 18.
Work on “TrwI/VirB6 (R388 T4SS) (natural protein)” yielded a stoichiometry N [4] of 5.
Substance “TrwJ/VirB5 (R388 T4SS) (natural protein)” has a stoichiometry N [5] of 5.
With “TrwK/VirB4 (R388 T4SS) (natural protein)” the stoichiometry N [6] was 12.
